Reference: article PMC8549118 (Nature structural & molecular biology, 2021)
Non-standard residues stand in square brackets, D forms with d. No end group written: not given here. pT = C[C@@H](OP(=O)(O)O)[C@H](N)C(=O)O; pS = N[C@@H](COP(=O)(O)O)C(=O)O

Target: T1, VSP-C363S (voltage-sensing phosphatase, aa 241-576) (C. intestinalis, UniProt Q4W8A1 241-576, C363S)
T1 sequence (looked up): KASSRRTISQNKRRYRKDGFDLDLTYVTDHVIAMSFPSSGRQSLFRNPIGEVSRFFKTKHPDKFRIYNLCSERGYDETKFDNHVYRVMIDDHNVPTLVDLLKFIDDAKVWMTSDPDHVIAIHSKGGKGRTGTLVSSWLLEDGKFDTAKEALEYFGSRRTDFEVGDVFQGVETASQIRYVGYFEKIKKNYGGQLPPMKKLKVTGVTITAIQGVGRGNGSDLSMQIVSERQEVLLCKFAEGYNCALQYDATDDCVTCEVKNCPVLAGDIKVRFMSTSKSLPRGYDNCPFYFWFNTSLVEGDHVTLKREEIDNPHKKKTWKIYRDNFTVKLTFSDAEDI
Assay: fluorescence polarisation

- binding result: binds
Binder: CRY[pS]D[pT][pT]D[pS]DPENEG [4p-T2, tetraphosphorylated PTEN C-tail peptide (15 aa)]
